{
  "source": "patent US20240287166A1",
  "about": "(published 2024)",
  "target": "T1, CSP on P. falciparum sporozoites (Plasmodium falciparum, UniProt P19597 19-374)",
  "T1 construct": "whole, on cells; also called P. falciparum sporozoites, which present CSP in its native conformation",
  "T1 sequence (P19597 19-374)": "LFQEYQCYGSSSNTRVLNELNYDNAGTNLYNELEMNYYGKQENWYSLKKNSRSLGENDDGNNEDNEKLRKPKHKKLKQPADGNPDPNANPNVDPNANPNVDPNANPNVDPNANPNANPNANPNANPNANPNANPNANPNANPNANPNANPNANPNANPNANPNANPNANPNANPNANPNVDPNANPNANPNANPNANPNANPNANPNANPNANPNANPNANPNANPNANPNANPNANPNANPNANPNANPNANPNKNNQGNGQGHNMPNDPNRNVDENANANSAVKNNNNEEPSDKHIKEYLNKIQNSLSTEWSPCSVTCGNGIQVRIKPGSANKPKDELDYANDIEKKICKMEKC",
  "experiment": "sporozoite ELISA, mouse sera Day 7 (FIG. 6D)",
  "data": [
    {"binder": "10e DMAb-2 (antibody, human IgG1, lambda, V domains shown, also called MGU10-based engineered DMAb 2; 10e DMAb-2 (MGU10 VH-1 / MGU10 VL)) VH: QVQLVESGGGVVQPGRSLRLSCAASGFAFSNYGMHWVRQAPGKGLEWVAVIWHDGSLKYYTQSVKGRFTISRDNSKNTLYLQMNSLRAEDTAVYYCTVWYLETPDDGFDIWGQGTMVTVSS VL: QLVLTQPPSASASLGVSVTLTCTLSHGHTSKAIAWHQQQPGKGPRYLMKVNSDGSHTKGAAVPDRFSGSTSGAERHFTISNLQSDDEADYYCQAWDSGIWVFGGGTKLTVLG", "values": [
      {"measurement": "binding result", "result": "binds"}
    ]}
  ]
}
